Measurements published in patent US8846873B2, “Antibodies directed to GPNMB and uses thereof” (Celldex Therapeutics, Inc., priority 2004, dated 2014).

Assays:
melanoma cell lines = experiment: Clonogenic assay with 1.15.1-AE; format: cell-based, human; details: various concentrations
Description: Melanoma cell lines were plated onto flat bottom 96-well tissue culture plates (Becton Dickinson, Franklin Lakes, N.J., USA). On day 2 or when cells reach ˜25% confluency, various concentrations of unconjugated and Auristatin E-conjugated 1.15.1 were added to cells. MAb 2.6.2-AE was also used as a conjugated isotype control in this study. On day 5, the cells were trypsinized, transferred to 6-well tissue culture plates and incubated at 37° C. Plates were examined daily. On days 8-10, all plates were Giemsa stained and colonies on the plates were counted.

GPNMB [1] = molecular target: T1, GPNMB (Homo sapiens, UniProt Q14956); experiment: Binning of antibodies (Luminex competitive binding); details: three bins of six anti-GPNMB antibodies
T1 construct: made in house; host or cells: HEK 293
T1 sequence (Q14956 23-492): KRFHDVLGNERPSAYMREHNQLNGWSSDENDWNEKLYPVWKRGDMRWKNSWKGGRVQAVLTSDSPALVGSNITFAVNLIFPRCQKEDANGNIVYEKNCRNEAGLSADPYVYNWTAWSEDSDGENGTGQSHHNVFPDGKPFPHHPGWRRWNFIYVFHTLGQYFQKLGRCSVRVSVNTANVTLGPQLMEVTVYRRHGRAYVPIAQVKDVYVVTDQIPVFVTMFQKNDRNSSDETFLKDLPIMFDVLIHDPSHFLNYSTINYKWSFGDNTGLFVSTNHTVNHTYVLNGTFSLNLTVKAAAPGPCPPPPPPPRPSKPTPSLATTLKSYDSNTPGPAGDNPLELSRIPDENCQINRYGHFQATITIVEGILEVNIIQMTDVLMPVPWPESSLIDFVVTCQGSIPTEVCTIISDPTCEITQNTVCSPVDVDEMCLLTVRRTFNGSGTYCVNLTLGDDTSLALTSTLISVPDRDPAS
Description: Certain antibodies, described herein were binned in accordance with the protocol described in U.S. Patent Application Publication No. 20030157730. MxhIgG conjugated beads are prepared for coupling to primary antibody. The volume of supernatant needed is calculated using the following formula: (n+10)×50 μL (where n=total number of samples on plate). Where the concentration is known, 0.5 μg/mL is used. Bead stock is gently vortexed, then diluted in supernatant to a concentration of 2500 of each bead per well or 0.5×10^5/mL and incubated on a shaker in the dark at RT overnight, or 2 hours if at a known concentration of […]. Following aspiration, 50 μL of each bead is added to each well of filter plate, then washed once by adding 100 μL/well wash buffer and aspirating. Antigen and controls are added to filter plate 50 μL/well then covered and allowed to incubate in the dark for 1 hour on shaker. Following a wash step, a secondary unknown antibody is added at 50 μL/well using the same dilution (or concentration if known) as is used for the primary antibody. The plates are then incubated in the dark for 2 hours at RT on shaker followed by a wash step. Next, 50 μL/well biotinylated mxhIgG diluted 1:500 is added and allowed to incubate in the dark for 1 hour on shaker at RT. […]

GPNMB [2] = molecular target: T1, GPNMB; experiment: BiaCore 2000 biosensor binding of hybridoma supernatant mAb to GPNMB
Description: Certain Hybridoma cell supernatants (29) were analyzed for binding to GPNMB by BiaCore® 2000 biosensor equipped with a research-grade CMS sensor chip. A 1:25 dilution of cell supernatant was passed over a protein A surface for 5 min followed by washing the surface for 10 mins. Subsequently, GPNMB was injected for 90 sec. over the surface at a concentration of 880 nM followed by dissociation. Double-referenced binding data were obtained by subtracting the signal from a control flow cell and subtracting the baseline drift of a buffer injected just prior to the antigen injection. GPNMB binding ddata for each mAb was normalized for the amount of mAb captured on each surface. Normalized, drift corrected responses were also measured. The sensorgrams were fit to a simple 1:1 kinetic model.

SNB-78 = experiment: Flow cytometry (FACS) of CR011 surface staining; format: binding, human
Description: (§1) Flow Cytometry: Quantitative analysis of CG56972 expression on the surface of cell lines was determined by flow cytometry (FACS). […] Cells were fixed in 1% paraformaldehyde/PBS and examined on a Becton Dickinson FACSCalibur flow cytometer. Data analysis was performed with Becton Dickinson Cell Quest software version 3.3 and the geometric mean fluorescence intensity ratio (GMR) was determined for each cell type.

SF-268 = experiment: Flow cytometry (FACS) of CR011 surface staining; format: binding, human
Description: as §1

SF-539 = experiment: Flow cytometry (FACS) of CR011 surface staining; format: binding, human
Description: as §1

XF-498 = experiment: Flow cytometry (FACS) of CR011 surface staining; format: binding, human
Description: as §1

U-118-MG = experiment: Flow cytometry (FACS) of CR011 surface staining; format: binding, human
Description: as §1

SK-Mel-2 cells = experiment: Flow cytometry of CR011 binding to cell surface CG56972/GPNMB; parameters: species or system human; details: SK-MEL-2, positive control
Description: Flow Cytometry: Quantitative analysis of GPNMB expression on the cell surface of cell lines was determined by flow cytometry. […] Cells were fixed in 1% paraformaldehyde/PBS and examined on a Becton Dickinson FACSCalibur flow cytometer. Data analysis was performed with Becton Dickinson Cell Quest software version 3.3 and the geometric mean fluorescence intensity ratio (GMR) was determined for each cell type.
as §1

[3] = mAb captured on protein A, GPNMB 880 nM, 1:1 kinetic model

B1: Mab1.15.1 (protein, listed as Homo sapiens)
chain: QVQLQESGPGLVKPSQTLSLTCTVSGGSISSFNYYWSWIRHHPGKGLEWIGYIYYSGSTYSNPSLKSRVTISVDTSKNQFSLTLSSVTAADTAVYYCARGYNWNYFDYWGQGTLVTVSSA
effect on growth of all the melanoma cell lines tested (melanoma cell lines): no effect on growth
Bin (GPNMB [1]): Bin 2
binding to GPNMB (GPNMB [2]; 1:25 dilution of cell supernatant): strong binding
Kd (GPNMB [2]; [3]): 0.052 µM
ka (GPNMB [2]; [3]): 16524 M⁻¹ s⁻¹
kd (GPNMB [2]; [3]): 0.000855 s⁻¹
surface staining above isotype control mAb background (SNB-78): at least 1.5 fold
surface staining above control mAb background (SF-268): around 1.5 fold
surface staining above isotype control mAb background (SF-539): at least 1.5 fold
surface staining above isotype control mAb background (XF-498): at least 1.5 fold
surface staining above isotype control mAb background (U-118-MG): at least 1.5 fold
cell surface staining (SK-Mel-2 cells): strong cell surface staining
